Experiment [1] deals with SETD3(1−498) (UniProt Q86TU7). As to the kind of experiment: BLI.
Experiment [2] has as its target SETD3(1−498) (UniProt Q86TU7). As to the kind of experiment: AUC.

Drawing on publication PMC11099015, this text covers Kd and stoichiometry N for 3 substances.

Like-named read-outs stand apart in the source and are kept apart here.

Consider CVB3 2A C107A (enzyme), for which, in the experiment with SETD3(1−498) [1], the Kd (usually the concentration at which binding is half-saturated) stood at 11.8 nM. EV71 2A C110A (enzyme): the stoichiometry N (usually the number of molecules, sites or subunits per partner or assembly) with SETD3(1−498) [2] stood at 1. The Kd in the experiment with SETD3(1−498) [1] is 22.7 nM.

EV71 2A C110A K70A; H71A; Y72A returned a Kd with SETD3(1−498) [1] (2A KHY(70-72)AAA at 12.5, 6.25, 3.13, 1.56 and 0.78 µM) of 1750 nM.
